Each block holds one binder with its values, some of them ahead of it.
How the values were obtained:
[1] = target: STAT3 in cytokine-treated human cells (CNTF, OM or IL6) (human, UniProt P40763 2-770, limits assumed, tyrosine phosphorylated after cytokine treatment (site not given)); assay: co-immunoprecipitation with anti-PIAS1n from HepG2 cells untreated or treated with IL6 or IFN-γ, anti-STAT3 blot
[2] = target: STAT2 in IFN-treated human Daudi B cells (human, UniProt P52630 1-851); assay: co-immunoprecipitation with anti-PIAS1n from IFN-treated Daudi B cells, immunoblot with anti-STAT1 and anti-STAT2
Protocol: Daudi cells were treated with […] for the times indicated. Whole cell extracts were prepared and one half of these extracts were used for immunoprecipitation with anti-PIAS1n (left panel). Immunoprecipitation was carried out as described in (A) and the filter was probed with anti-STAT1 and anti-STAT2. The same filter was washed and reprobed with anti-PIAS1n (lower panel). The other half of protein extracts were subjected to immunoprecipitation with anti-STAT1 (right panel). The filter was probed with a mixture of anti-STAT1 and anti-STAT2 antibodies. p-STAT1: phosphorylated STAT1.
Human Daudi B cells were untreated or treated with IFN-α for various time periods. Protein extracts were prepared and subjected to immunoprecipitation with anti-PIAS1n followed by immunoblot with both anti-STAT1 and STAT2 antibodies. While STAT1 was associated with PIAS1 in IFN-treated cells, STAT2 was absent in PIAS1 immunoprecipitates (FIG. 8B).

[3] = target: T1, STAT1 in IL6-treated murine M1 cells (murine, UniProt P42225 2-749, the filing says IL6 stimulation can induce tyrosine phosphorylation of STAT1); assay: co-immunoprecipitation with anti-PIAS3c from M1 cells, blot reprobed with antibody to STAT1
T1 sequence (looked up): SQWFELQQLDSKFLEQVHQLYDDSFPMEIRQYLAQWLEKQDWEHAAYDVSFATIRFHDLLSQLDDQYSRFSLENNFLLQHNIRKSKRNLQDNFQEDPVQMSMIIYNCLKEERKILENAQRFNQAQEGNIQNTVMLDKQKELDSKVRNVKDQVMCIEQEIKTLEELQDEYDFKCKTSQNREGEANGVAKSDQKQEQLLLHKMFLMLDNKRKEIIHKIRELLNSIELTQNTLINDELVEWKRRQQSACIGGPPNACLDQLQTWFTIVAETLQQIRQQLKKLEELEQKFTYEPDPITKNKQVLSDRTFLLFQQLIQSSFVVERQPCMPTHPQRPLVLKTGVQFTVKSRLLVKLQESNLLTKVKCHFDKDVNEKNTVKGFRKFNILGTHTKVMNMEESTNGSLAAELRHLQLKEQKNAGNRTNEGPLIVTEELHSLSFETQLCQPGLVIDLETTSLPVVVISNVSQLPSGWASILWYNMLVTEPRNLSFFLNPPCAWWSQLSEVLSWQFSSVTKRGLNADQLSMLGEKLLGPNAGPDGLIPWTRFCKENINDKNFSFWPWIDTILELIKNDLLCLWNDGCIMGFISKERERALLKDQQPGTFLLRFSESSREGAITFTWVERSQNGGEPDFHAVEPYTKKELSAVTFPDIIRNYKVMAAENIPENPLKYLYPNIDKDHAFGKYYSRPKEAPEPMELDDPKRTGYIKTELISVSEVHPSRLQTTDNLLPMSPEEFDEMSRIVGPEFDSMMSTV
Protocol: To identify which STAT protein interacts with PIAS3, protein extracts were prepared from murine myeloblast M1 cells, which were untreated or treated with IL6. Proteins immunoprecipitated with anti-PIAS3c were analyzed by protein immunoblot with anti-STAT3. STAT3 was present in a PIAS3 immunoprecipitate from IL6 treated M1 cells but not in an immunoprecipitate from untreated M1 cells (FIG. 2A). […] IL6 stimulation can induce tyrosine phosphorylation of STAT1 as well as STAT3 (Sadowski et al. (1993)). The protein blot was therefore washed and reprobed with antibody to STAT1. STAT1 was not present in PIAS3 immunoprecipitates (FIG. 2A). Furthermore, PIAS3 was not found to be associated with STAT1 in a number of cell lines treated with interferon-γ.
Protein extracts from M1 cells, untreated (−) or treated with IL6 for 10 min (+), were subjected to immunoprecipitation (IP) with anti-PIAS3c. The blot was probed with anti-STAT. The same blot was then reprobed with anti-PIAS3c. The filter was washed and reprobed with anti-STAT1.

[4] = target: T2, STAT1 in interferon-treated human cells (human, UniProt P42224 2-750, limits assumed, phosphotyrosine at Tyr-701 (IFN-induced)); assay: co-immunoprecipitation with anti-PIAS3c from HepG2 cells untreated or treated with IL6 or IFN-γ, anti-STAT1 blot
T2 construct: also called p-STAT1; wild type STAT1
T2 sequence (looked up): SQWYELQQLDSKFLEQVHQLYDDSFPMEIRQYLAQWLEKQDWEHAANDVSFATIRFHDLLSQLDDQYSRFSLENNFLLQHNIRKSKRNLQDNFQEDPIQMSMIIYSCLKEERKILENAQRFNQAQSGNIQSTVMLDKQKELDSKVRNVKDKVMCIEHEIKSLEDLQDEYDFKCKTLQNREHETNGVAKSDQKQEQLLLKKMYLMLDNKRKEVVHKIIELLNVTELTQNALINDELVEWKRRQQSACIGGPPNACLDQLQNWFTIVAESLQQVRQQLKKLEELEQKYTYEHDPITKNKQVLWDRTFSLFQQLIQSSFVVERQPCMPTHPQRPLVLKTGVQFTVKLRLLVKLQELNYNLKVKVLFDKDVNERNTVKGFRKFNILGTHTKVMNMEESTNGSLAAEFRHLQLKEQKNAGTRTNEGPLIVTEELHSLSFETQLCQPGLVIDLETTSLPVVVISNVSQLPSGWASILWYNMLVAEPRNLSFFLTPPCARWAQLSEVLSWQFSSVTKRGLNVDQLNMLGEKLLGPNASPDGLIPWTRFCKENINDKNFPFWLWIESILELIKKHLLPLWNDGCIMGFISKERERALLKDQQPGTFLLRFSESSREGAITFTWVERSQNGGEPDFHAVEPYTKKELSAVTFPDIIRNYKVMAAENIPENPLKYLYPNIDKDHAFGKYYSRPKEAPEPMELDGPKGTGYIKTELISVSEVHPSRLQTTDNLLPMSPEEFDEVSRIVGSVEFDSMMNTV

Sequence of STAT3 in cytokine-treated human cells (CNTF, OM or IL6) (P40763 2-770 limits assumed): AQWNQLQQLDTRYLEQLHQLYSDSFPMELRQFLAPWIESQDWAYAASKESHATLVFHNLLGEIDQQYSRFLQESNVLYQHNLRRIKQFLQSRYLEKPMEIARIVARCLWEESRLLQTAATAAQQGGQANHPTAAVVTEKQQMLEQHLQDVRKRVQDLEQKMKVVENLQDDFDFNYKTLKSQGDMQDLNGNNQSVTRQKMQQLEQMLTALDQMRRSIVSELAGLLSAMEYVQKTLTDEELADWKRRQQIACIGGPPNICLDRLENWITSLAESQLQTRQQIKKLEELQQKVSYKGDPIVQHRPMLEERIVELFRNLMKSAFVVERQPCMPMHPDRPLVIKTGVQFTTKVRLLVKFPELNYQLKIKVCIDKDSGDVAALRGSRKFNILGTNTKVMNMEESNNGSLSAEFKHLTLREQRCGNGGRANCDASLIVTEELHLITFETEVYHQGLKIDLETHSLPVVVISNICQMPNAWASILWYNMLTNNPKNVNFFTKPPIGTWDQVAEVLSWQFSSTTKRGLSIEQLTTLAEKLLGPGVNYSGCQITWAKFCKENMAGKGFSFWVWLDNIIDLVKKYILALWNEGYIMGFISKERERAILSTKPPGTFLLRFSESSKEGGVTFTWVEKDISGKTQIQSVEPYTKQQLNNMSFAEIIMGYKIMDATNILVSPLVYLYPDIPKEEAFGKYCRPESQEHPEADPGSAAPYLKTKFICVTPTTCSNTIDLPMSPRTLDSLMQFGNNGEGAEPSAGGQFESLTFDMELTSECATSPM
Sequence of STAT2 in IFN-treated human Daudi B cells (P52630 whole entry): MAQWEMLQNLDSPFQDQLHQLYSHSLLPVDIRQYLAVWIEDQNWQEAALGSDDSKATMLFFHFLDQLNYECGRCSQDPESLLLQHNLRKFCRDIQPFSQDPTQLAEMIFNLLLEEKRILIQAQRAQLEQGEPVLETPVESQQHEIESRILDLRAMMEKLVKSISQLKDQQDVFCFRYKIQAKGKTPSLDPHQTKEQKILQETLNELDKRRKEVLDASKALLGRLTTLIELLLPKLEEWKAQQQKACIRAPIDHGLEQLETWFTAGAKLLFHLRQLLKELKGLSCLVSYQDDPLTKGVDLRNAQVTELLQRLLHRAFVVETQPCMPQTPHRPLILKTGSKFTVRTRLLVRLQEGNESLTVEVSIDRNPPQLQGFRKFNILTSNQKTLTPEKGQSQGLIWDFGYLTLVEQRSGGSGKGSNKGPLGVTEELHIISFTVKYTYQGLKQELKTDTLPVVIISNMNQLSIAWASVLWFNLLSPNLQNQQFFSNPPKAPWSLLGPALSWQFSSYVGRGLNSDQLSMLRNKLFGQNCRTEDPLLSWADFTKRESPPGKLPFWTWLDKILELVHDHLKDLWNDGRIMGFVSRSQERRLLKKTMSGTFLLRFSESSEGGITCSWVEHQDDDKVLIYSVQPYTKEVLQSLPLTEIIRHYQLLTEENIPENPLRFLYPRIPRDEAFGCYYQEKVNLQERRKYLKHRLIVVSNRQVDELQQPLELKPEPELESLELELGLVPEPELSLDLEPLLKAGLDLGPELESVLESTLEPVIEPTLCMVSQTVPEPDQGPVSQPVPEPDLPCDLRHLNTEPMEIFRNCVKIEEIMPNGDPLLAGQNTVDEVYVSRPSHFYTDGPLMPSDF

binding result [1]: no binding | binding result [2]: no binding
B1: human PIAS1 (other)
chain: ADSAELKQMVMSLRVSELQVLLGYAGRNKHGRKHELLTKALHLLKAGCSPAVQMKIKELYRRRFPQKIMTPADLSIPNVHSSPMPATLSPSTIPQLTYDGHPASSPLLPVSLLGPKHKLELPHLTSALHPVHPDIKLQKLPFYDLLDELIKPTSLASDNSQRFRETCFAFALTPQQVQQISSSMDISGTKCDFTVQVQLRFCLSETSCPQEDHFPPNLCVKVNTKPCSLPGYLPPTKNGVEPKRPSRPINITSLVRLSTTVPNTMCSWTAEIGRNYSMAVYLVKQLSSTVLLQRLRAKGIRNPDHSRALIKEKLTADPDSEIATTSLRVSLLCPLGKMRLTIPCRALTCSHLQCFDATLYIQMNEKKPTWVCPVCDKKAPYEHLIIDGLFMEILKYCTDCDEIQFKEDGTWAPMRSKKEVQEVSASYNGVDGCLSSTLEHQVASHHQSSNKNKKVEVIDLTIDSSSDEEEEEPSAKRTCPSLSPTSPLNNKGILSLPHQASPVSRTPSLPAVDTSYINTSLIQDYRHPFHMTPMPYDLQGLDFFPFLSGDNQHYNTSLLAAAAAAVSDDQDLLHSSRFFPYTSSQMFLDQLSAGGSTSLPTTNGSSSGSNSSLVSSNSLRESHSHTVTNRSSTDTASIFGIIPDIISLD
notes: also called hPIAS1

binding result [3]: no binding
B2: murine PIAS3 (other)
chain: MVMSFRVSELQVLLGFAGRNKSGRKHELLAKALHLLKSSCAPSVQMKIKELYRRRFPRKTLGPSDLSLLSLPPGTSPPVHPDVTMKPLPFYEVYGELIRPTTLASTSSQRFEEAHFTFALTPQQLQQILTSREVLPGAKCDYTIQVQLRFCLCETSCPQEDYFPPNLFVKVNGKLCPLPGYLPPTKNGAEPRGPAVRSTSHPWLDSQPLSPTPSLLIGHLSLDGITPCPCLVRQLTAGTLLQKLRAKGIRNPDHSRALIKEKLTADPDSEVATTSLPGVTHVPARKMRLTVPCRALTCAHLQSFDAALYLQMNEKKPTWTCPVCDKKAPYESLIIDGLFMEILNSCSDDDEIQFMEDGSWCPMKPKKEASEVCPPPGYGLDGLQYSAVQEGIQPESKKRVEVIDLTIESSSDEEDLPPTKKHCSPTSAAIPALPGSKGALTSGHQPSSVLRSPAMGTLGSDFLSSLPVHEYPPAFPLGADIQGLDLFSFLQTESQQYGPSVIISLDEQDTLGHFFQYRGTPSHFLGPLAPTLGSCHGSSTPAPPPGRVSSIVAPGSSLREGHGGPLPSGPSLTGCRSDVISLD
notes: Endogenous protein immunoprecipitated with anti-PIAS3c from M1 cell extracts; also called mPIAS3; mouse PIAS3

binding result [4]: no binding
B3: human PIAS3 (other)
chain: MVMSFRVSELQVLLGFAGRNKSGRKHELLAKALHLLKSSCAPSVQMKIKELYRRRFPRKTLGPSDLSLLSLPPGTSPPVHPDVTMKPLPFYEVYGELIRPTTLASTSSQRFEEAHFTFALTPQQLQQILTSREVLPGAKCDYTIQVQLRFCLCETSCPQEDYFPPNLFVKVNGKLCPLPGYLPPTKNGAEPRGPAVRSTSHPWLDSQPLSPTPSLLIGMLSLDGITPCPCLVRQLTAGTLLQKLRAKGIRNPDHSRALIKEKLTADPDSEVATTSLPGVTHVPARKMRLTVPCRALTCAHLQSFDAALYLQMNEKKPTWTCPVCDKKAPYESLIIDGLFMEILNSCSDCDEIQFMEDGSWCPMKPKKEASEVCPPPGYGLDGLQYSAVQEGIQPESKKRVEVIDLTIESSSDEEDLPPTKKQCSVTSAAIPALLGSKGVLTSGHQPSSVLRSPAMGTLGSDFLSSLPVHEYPPAFPLGADIQGLDLFSFLQTESQQYGPSVIISLDEQDTLGHFFQYRGTPSHFLGPLAPTLGSCHGSSTPAPPPGRVSSIVAPGSSLREGHGGPLPSGPSLTGCRSDVISLD
notes: Endogenous protein immunoprecipitated with anti-PIAS3c from human HepG2 cells; also called hPIAS3

Source: patent US7265202 (University of California, dated 2007)
